Test results from the supplement of paper PMC10567573.

B1: GNB5 (parent)
chain: DINSVRYYPSGDAFASGSDDATCR
B2: DVL3 (parent)
chain: HPDPAPFCADNPSELPPPMERTGG

Variants of: B1
Experiment: protein stability index of a GFP-peptide fusion (GPS, HEK-293T) (PSI 1-6); higher = more stable
Conditions: c terminus: a fixed tail appended
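Also: lentivirally expressed fusions sorted by FACS into six bins by GFP to DsRed ratio, PSI derived from sequencing read proportions per bin multiplied by bin number.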

Protein stability index of substitutions, site by site:
T22: R 3.57 | A 3.92 | W 3 | Q 4.15 | V 3.8 | M 3.47 | F 3.42 | H 4.06 | S 3.91 | C 3.65 | L 3.72 | I 3.84 | D 3.76 | E 4.86 | K 4.07 | Y 2.94 | P 3.56 | N 4.01 | G 4.05
D19: Y 2.62 | N 3.2 | E 4.15 | S 3.4 | W 3.03 | F 2.39 | K 3.7 | V 2.69 | C 2.85 | M 2.95 | A 2.88 | L 3.14 | Q 3.75 | R 3.06 | T 3.25 | G 3.79 | I 3.03 | H 3.12 | P 3.4
D20: A 3.44 | M 3.13 | E 3.94 | T 3.58 | L 3.15 | I 3.14 | N 3.42 | G 3.61 | V 3.27 | C 3.53 | F 2.5 | S 3.47 | P 3.4 | H 3.04 | Q 3.69 | K 3.06 | R 3.2 | Y 2.6 | W 2.16
R24: M 4.03 | P 4.3 | S 4.12 | E 4.71 | H 4.29 | L 3.63 | N 3.59 | G 4.59 | V 3.92 | K 4.19 | C 4.06 | Q 4.68 | A 4.03 | I 3.77 | T 4.41 | F 3.51 | Y 3.99 | D 4.32 | W 3.53
C23: Q 4.13 | M 3.62 | I 4 | K 4.41 | G 4.39 | Y 3.9 | D 4.48 | R 3.92 | T 4.55 | L 3.95 | S 4.05 | N 3.95 | A 4.53 | E 4.74 | V 3.87 | F 3.95 | P 4.14 | H 4.3 | W 3.14
A21: L 3.82 | F 3.3 | M 3.44 | K 3.8 | V 3.72 | N 4.16 | Q 3.98 | W 2.79 | I 3.44 | T 3.79 | C 3.82 | G 3.63 | E 4.38 | D 4.34 | R 3.63 | S 3.91 | P 4.16 | H 3.62 | Y 3.19
S18: D 4.24 | Y 3.43 | K 3.55 | I 3.56 | N 4 | P 3.74 | L 3.55 | F 3.26 | E 4.43 | R 3.12 | T 4.06 | W 3.02 | M 3.49 | G 4.48 | V 3.33 | H 3.82 | Q 3.81

Variants of: B2
Experiment: as above
Conditions: c terminus: a fixed tail appended

Protein stability index of substitutions, site by site:
P4: C 4.85 | I 4.99 | G 4.94 | F 4.71 | K 5.4 | D 5.64 | L 4.8 | H 4.84 | A 4.6 | E 5.24
P2: K 5.1 | N 4.74 | W 3.03 | Q 1.54 | S 3.51 | L 1.93 | C 2.28 | T 2.27 | A 2.08 | H 3.19 | Y 3.84 | R 4.33 | F 4.57 | E 4.46 | G 5.4 | M 2.04 | D 5.12
H1: M 4.93 | E 5.45 | L 5.58 | R 4.98 | K 5.2
D3: M 3.42 | R 4.13 | V 3.39 | W 2.81
